Results as given in the supplement of paper PMC10567573.

B1: KRT34 (parent)
chain: YQSYFKTIEELQQKILCAKAENAR

Variants of: B1
Assay: protein stability index of a GFP-peptide fusion (GPS, HEK-293T) (PSI 1-6); higher = more stable
Conditions: c terminus: a fixed tail appended
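Further: lentivirally expressed fusions sorted by FACS into six bins by GFP to DsRed ratio, PSI derived from sequencing read proportions per bin multiplied by bin number.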

Q: With YQSYFKTIRELQQKILCAKAENAR [E9R] as the variant, how does the protein stability index read?
A: 1.75

Q: Which protein stability index does the source give for YQSYFKTIKELQQKILCAKAENAR [E9K] here?
A: 2.2

Q: Which protein stability index does the source give for YQSYFKTIMELQQKILCAKAENAR [E9M] here?
A: 3.64

Q: With YQSYFKTIWELQQKILCAKAENAR [E9W] as the variant, how does the protein stability index read?
A: 2.23

Q: With YQSYFKTIGELQQKILCAKAENAR [E9G] as the variant, how does the protein stability index read?
A: 1.64

Q: With YQSYFKTINELQQKILCAKAENAR [E9N] as the variant, how does the protein stability index read?
A: 2.45

Q: With YQSYFKTIVELQQKILCAKAENAR [E9V] as the variant, how does the protein stability index read?
A: 3.47

Q: Which protein stability index does the source give for YQSYFKTIPELQQKILCAKAENAR [E9P] here?
A: 1.29

Q: With YQSYFKTIIELQQKILCAKAENAR [E9I] as the variant, how does the protein stability index read?
A: 2

Q: Which protein stability index does the source give for YQSYFKTIQELQQKILCAKAENAR [E9Q] here?
A: 1.9

Q: With YQSYFKTIFELQQKILCAKAENAR [E9F] as the variant, how does the protein stability index read?
A: 1.73

Q: Which protein stability index does the source give for YQSYFKTIAELQQKILCAKAENAR [E9A] here?
A: 1.77

Q: Which protein stability index does the source give for YQSYFKTIHELQQKILCAKAENAR [E9H] here?
A: 2.46

Q: With YQSYFKTICELQQKILCAKAENAR [E9C] as the variant, how does the protein stability index read?
A: 1.87

Q: For YQSYFKTIDELQQKILCAKAENAR [E9D], which protein stability index is on record?
A: 2.25

Q: With YQSYFKTITELQQKILCAKAENAR [E9T] as the variant, how does the protein stability index read?
A: 1.84

Q: For YQSYFKTISELQQKILCAKAENAR [E9S], which protein stability index is on record?
A: 1.99

Q: For YQSYFKTILELQQKILCAKAENAR [E9L], which protein stability index is on record?
A: 1.53

Q: With YQSYFKTIYELQQKILCAKAENAR [E9Y] as the variant, how does the protein stability index read?
A: 1.64

Q: With YQSYFKTIEELPQKILCAKAENAR [Q12P] as the variant, how does the protein stability index read?
A: 1.4

Q: For YQSYFKTIEELCQKILCAKAENAR [Q12C], which protein stability index is on record?
A: 1.78

Q: Which protein stability index does the source give for YQSYFKTIEELGQKILCAKAENAR [Q12G] here?
A: 1.97

Q: For YQSYFKTIEELNQKILCAKAENAR [Q12N], which protein stability index is on record?
A: 1.65

Q: Which protein stability index does the source give for YQSYFKTIEELDQKILCAKAENAR [Q12D] here?
A: 1.69

Q: For YQSYFKTIEELRQKILCAKAENAR [Q12R], which protein stability index is on record?
A: 2.63

Q: For YQSYFKTIEELMQKILCAKAENAR [Q12M], which protein stability index is on record?
A: 2.15

Q: For YQSYFKTIEELVQKILCAKAENAR [Q12V], which protein stability index is on record?
A: 1.55

Q: With YQSYFKTIEELKQKILCAKAENAR [Q12K] as the variant, how does the protein stability index read?
A: 2

Q: Which protein stability index does the source give for YQSYFKTIEELYQKILCAKAENAR [Q12Y] here?
A: 1.77

Q: Which protein stability index does the source give for YQSYFKTIEELHQKILCAKAENAR [Q12H] here?
A: 2.34

Q: With YQSYFKTIEELAQKILCAKAENAR [Q12A] as the variant, how does the protein stability index read?
A: 1.6

Q: For YQSYFKTIEELLQKILCAKAENAR [Q12L], which protein stability index is on record?
A: 1.9

Q: Which protein stability index does the source give for YQSYFKTIEELFQKILCAKAENAR [Q12F] here?
A: 2.02

Q: Which protein stability index does the source give for YQSYFKTIEELIQKILCAKAENAR [Q12I] here?
A: 3.66

Q: Which protein stability index does the source give for YQSYFKTIEELSQKILCAKAENAR [Q12S] here?
A: 1.77

Q: Which protein stability index does the source give for YQSYFKTIEELEQKILCAKAENAR [Q12E] here?
A: 1.48

Q: For YQSYFKTIEELTQKILCAKAENAR [Q12T], which protein stability index is on record?
A: 2.21

Q: Which protein stability index does the source give for YQSYFKTLEELQQKILCAKAENAR [I8L] here?
A: 1.98

Q: For YQSYFKTDEELQQKILCAKAENAR [I8D], which protein stability index is on record?
A: 2.59

Q: Which protein stability index does the source give for YQSYFKTGEELQQKILCAKAENAR [I8G] here?
A: 1.48

Q: For YQSYFKTYEELQQKILCAKAENAR [I8Y], which protein stability index is on record?
A: 2.52

Q: For YQSYFKTWEELQQKILCAKAENAR [I8W], which protein stability index is on record?
A: 1.42

Q: For YQSYFKTHEELQQKILCAKAENAR [I8H], which protein stability index is on record?
A: 1.62

Q: Which protein stability index does the source give for YQSYFKTMEELQQKILCAKAENAR [I8M] here?
A: 2.26

Q: With YQSYFKTVEELQQKILCAKAENAR [I8V] as the variant, how does the protein stability index read?
A: 2.85

Q: For YQSYFKTKEELQQKILCAKAENAR [I8K], which protein stability index is on record?
A: 2.47

Q: Which protein stability index does the source give for YQSYFKTPEELQQKILCAKAENAR [I8P] here?
A: 2.24

Q: For YQSYFKTAEELQQKILCAKAENAR [I8A], which protein stability index is on record?
A: 2.26

Q: With YQSYFKTSEELQQKILCAKAENAR [I8S] as the variant, how does the protein stability index read?
A: 1.77

Q: Which protein stability index does the source give for YQSYFKTCEELQQKILCAKAENAR [I8C] here?
A: 1.57

Q: With YQSYFKTFEELQQKILCAKAENAR [I8F] as the variant, how does the protein stability index read?
A: 2.23

Q: For YQSYFKTREELQQKILCAKAENAR [I8R], which protein stability index is on record?
A: 2.09

Q: Which protein stability index does the source give for YQSYFKTTEELQQKILCAKAENAR [I8T] here?
A: 1.35

Q: For YQSYFKTQEELQQKILCAKAENAR [I8Q], which protein stability index is on record?
A: 1.37

Q: For YQSYFKTEEELQQKILCAKAENAR [I8E], which protein stability index is on record?
A: 2.6

Q: For YQSYFKTIEVLQQKILCAKAENAR [E10V], which protein stability index is on record?
A: 2.04

Q: For YQSYFKTIEALQQKILCAKAENAR [E10A], which protein stability index is on record?
A: 1.95

Q: For YQSYFKTIEFLQQKILCAKAENAR [E10F], which protein stability index is on record?
A: 2.41

Q: Which protein stability index does the source give for YQSYFKTIEKLQQKILCAKAENAR [E10K] here?
A: 1.81

Q: With YQSYFKTIEQLQQKILCAKAENAR [E10Q] as the variant, how does the protein stability index read?
A: 1.19

Q: With YQSYFKTIENLQQKILCAKAENAR [E10N] as the variant, how does the protein stability index read?
A: 2.19

Q: For YQSYFKTIECLQQKILCAKAENAR [E10C], which protein stability index is on record?
A: 1.44

Q: For YQSYFKTIEMLQQKILCAKAENAR [E10M], which protein stability index is on record?
A: 2

Q: With YQSYFKTIEWLQQKILCAKAENAR [E10W] as the variant, how does the protein stability index read?
A: 1.72

Q: With YQSYFKTIEPLQQKILCAKAENAR [E10P] as the variant, how does the protein stability index read?
A: 1.93

Q: Which protein stability index does the source give for YQSYFKTIETLQQKILCAKAENAR [E10T] here?
A: 1.27

Q: With YQSYFKTIEDLQQKILCAKAENAR [E10D] as the variant, how does the protein stability index read?
A: 1.61

Q: With YQSYFKTIERLQQKILCAKAENAR [E10R] as the variant, how does the protein stability index read?
A: 2.49

Q: With YQSYFKTIESLQQKILCAKAENAR [E10S] as the variant, how does the protein stability index read?
A: 1.83

Q: Which protein stability index does the source give for YQSYFKTIELLQQKILCAKAENAR [E10L] here?
A: 1.91

Q: Which protein stability index does the source give for YQSYFKTIEHLQQKILCAKAENAR [E10H] here?
A: 1.69

Q: Which protein stability index does the source give for YQSYFKTIEGLQQKILCAKAENAR [E10G] here?
A: 1.7

Q: Which protein stability index does the source give for YQSYFKTIEYLQQKILCAKAENAR [E10Y] here?
A: 2.74

Q: For YQSYFKTIEILQQKILCAKAENAR [E10I], which protein stability index is on record?
A: 1.96

Q: Which protein stability index does the source give for YQSYFKTIEELQQKILGAKAENAR [C17G] here?
A: 2.32

Q: With YQSYFKTIEELQQKILIAKAENAR [C17I] as the variant, how does the protein stability index read?
A: 2.16

Q: With YQSYFKTIEELQQKILHAKAENAR [C17H] as the variant, how does the protein stability index read?
A: 2.06

Q: Which protein stability index does the source give for YQSYFKTIEELQQKILWAKAENAR [C17W] here?
A: 2.94

Q: For YQSYFKTIEELQQKILAAKAENAR [C17A], which protein stability index is on record?
A: 2.56

Q: For YQSYFKTIEELQQKILEAKAENAR [C17E], which protein stability index is on record?
A: 2.39

Q: For YQSYFKTIEELQQKILVAKAENAR [C17V], which protein stability index is on record?
A: 1.37

Q: Which protein stability index does the source give for YQSYFKTIEELQQKILFAKAENAR [C17F] here?
A: 1.97

Q: For YQSYFKTIEELQQKILQAKAENAR [C17Q], which protein stability index is on record?
A: 2.56

Q: Which protein stability index does the source give for YQSYFKTIEELQQKILMAKAENAR [C17M] here?
A: 2.11

Q: With YQSYFKTIEELQQKILSAKAENAR [C17S] as the variant, how does the protein stability index read?
A: 2.19

Q: With YQSYFKTIEELQQKILRAKAENAR [C17R] as the variant, how does the protein stability index read?
A: 2.42

Q: For YQSYFKTIEELQQKILLAKAENAR [C17L], which protein stability index is on record?
A: 2.6

Q: For YQSYFKTIEELQQKILNAKAENAR [C17N], which protein stability index is on record?
A: 1.88

Q: Which protein stability index does the source give for YQSYFKTIEELQQKILDAKAENAR [C17D] here?
A: 1.84

Q: Which protein stability index does the source give for YQSYFKTIEELQQKILPAKAENAR [C17P] here?
A: 2.25

Q: For YQSYFKTIEELQQKILTAKAENAR [C17T], which protein stability index is on record?
A: 2.04

Q: Which protein stability index does the source give for YQSYFKTIEELQQKILKAKAENAR [C17K] here?
A: 2.51

Q: For YQSYFKTIEELQQKIECAKAENAR [L16E], which protein stability index is on record?
A: 2.63

Q: For YQSYFKTIEELQQKIHCAKAENAR [L16H], which protein stability index is on record?
A: 2.12
